47 molecules from patent US20090291081A1 (AbbVie / Abbott, published 2009) can be followed below.

First the molecules themselves.
T1: human IL-1α (human, UniProt P01583 113-271)
T1 sequence (looked up): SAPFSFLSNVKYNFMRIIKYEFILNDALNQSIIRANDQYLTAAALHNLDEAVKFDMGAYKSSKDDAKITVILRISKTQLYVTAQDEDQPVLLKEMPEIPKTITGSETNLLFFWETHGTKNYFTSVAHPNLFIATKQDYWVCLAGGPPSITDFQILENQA

B1: ABT1-22 (other)
VH: EVQLLESGGGLVQPGGSLRLSCAASGFTLKAYNMSWVRQAPGKGLEWVSLISSTGMFTDYADSVKGRFTISRDNSKNTLYLQMNSLRAEDTAVYYCAKWGVRRGLYFDYWGQGTLVTVSS
B2: ABT1-67 (other)
VL: DIQMTQSPSSLSASVGDRVTITCRASQSIHRSLRWYQQKPGKAPKLLIYHASHLQSGVPSRFSGSGSGTDFTLTISSLQPEDFATYYCQQYKRRPSTFGQGTKVEIKR
B3: ABT1-149 (other)
VL: DIQMTQSPSSLSASVGDRVTITCRASQSISSYLNWYQQKPGKAPKLLIGGLSGLQSGVPSRFSGSGSGTDFTLTISSLQPEDFATYYCMQWWRWPSTFGQGTKVEIKRAAAEQKLISEED
B4: ABT1-95-21 (other)
VL: DIQMTQSPSSLSASVGDRVTITCRASQPIVRNLRWYQQKPGKAPKLLIYSSSYLEPGVPSRFSGSGSGTDFTLTISSLQPEDFATYYCQQGYRWPVTFGQGTKVEIKR
notes: VK dAb
B5: ABT1-95-184 (other)
VL: B4 VL with Q27R, P28T, I29P, S51R, Y87H, Q89L, V96P
B6: ABT1-95-171 (other)
VL: B4 VL with Q27R, S51V, Y87H
B7: ABT1-95-A3 (other)
VL: B4 VL with Q27K, I29G, L33M, S51V, Y87H, Q89L, V96P
B8: ABT1-95-162 (other)
VL: B4 VL with Q27K, Y87H
B9: ABT1-95-179 (other)
VL: B4 VL with Y87H, Q89R, V96P
B10: ABT1-95-133 (other)
VL: B4 VL with Y87H, Q89R
B11: ABT1-95-163 (other)
VL: B4 VL with Q27R, Y87H
B12: ABT1-11 (other)
VL: B4 VL with P28S, V30P, R31Y, S51A, Y53R, E55Q, P56S, R93S, V96M
B13: ABT1-95-168 (other)
VL: B4 VL with Y53F, Y87H
B14: ABT1-95-135 (other)
VL: B4 VL with Y87H, R93S
B15: ABT1-95-178 (other)
VL: B4 VL with S51V, Y87H, Q89R
B16: ABT1-10 (other)
VL: B4 VL with P28S, R31P, S50G, S51A, Y53T, E55Q, P56S, R93V, W94Y, V96G
B17: ABT1-95-A6 (other)
VL: B4 VL with Q27K, I29G, L33M, S50A, S51K, Y87H, Q89K, T97Q
B18: ABT1-95-51 (other)
VL: B4 VL with V30I, Y87H
B19: ABT1-95-169 (other)
VL: B4 VL with S50A, S51V, Y87H
B20: ABT1-95-164 (other)
VL: B4 VL with I29G, Y87H
B21: ABT1-95-167 (other)
VL: B4 VL with S51R, T69A, Y87H
B22: ABT1-95-A5 (other)
VL: B4 VL with Q27R, P28T, I29P, S51R, Y53F, Y87H, Q89L, V96P
B23: ABT1-95-172 (other)
VL: B4 VL with Q27R, S50A, S51V, Y87H
B24: ABT1-95-136 (other)
VL: B4 VL with Q79H, F83L, Y87H, R93G
B25: ABT1-95-175 (other)
VL: B4 VL with Q27R, S50A, Y87H, Q89R
B26: ABT1-95-137 (other)
VL: B4 VL with Y87H, R93L
B27: ABT1-95-176 (other)
VL: B4 VL with Q27R, S50A, S51V, Y87H, Q89R
B28: ABT1-95-166 (other)
VL: B4 VL with S51K, Y87H
B29: ABT1-95-134 (other)
VL: B4 VL with Y87H, Q89A
B30: ABT1-95-173 (other)
VL: B4 VL with T22S, Q27R, Y87H, Q89R
B31: ABT1-95-170 (other)
VL: B4 VL with Q27R, S50A, Y87H
B32: ABT1-95-165 (other)
VL: B4 VL with L33M, Y87H
B33: ABT1-95-25 (other)
VL: B4 VL with Q89D
notes: VK dAb
B34: ABT1-95-26 (other)
VL: B4 VL with Q89G
notes: VK dAb
B35: ABT1-95-24 (other)
VL: B4 VL with Q89C
notes: VK dAb
B36: ABT1-95-22 (other)
VL: B4 VL with R93H
notes: VK dAb
B37: ABT1-95-23 (other)
VL: B4 VL with I29T
notes: VK dAb
B38: ABT1-122-750x (other)
VL: DIQMTQSPSSLSASVGDRVAITCSASQHIWTEISWYQQKPGKAPKLLIYGSASRQKGVPSRFSGSGSGTDFTLTISSLQPEDFATYYCKQFAYFPNTFGQGTKVEIKR
B39: ABT1-23 (other)
VH: EVQLLESGGGLVQPGGSLRLSCAASGFTFSSYPMEWVRQAPGKGLEWVSAIAWPGSMTYYADSVKGRFTISRDNSKNTLYLQMNSLRAEDTAVYYCAKTHRLFDYWGQGTLVTVSS
B40: ABT1-99 (other)
VH: EVQLLESGGGLVQPGGSLRLSCAASGFTFGKYSMTWVRQAPGKGLEWVSVIDPWGHYTYYADSVKGRFTISRDNSKNTLYLQMNSLRAEDTAVYYCAKSVDATLLRRYFDYWGQGTLVTVSS
B41: ABT1-141-29 (other)
VL: DIQVTQSPSSLSASVGDRVTITCRASQWIQKQLAWYQLKPGKAPKLLIYSSSYLQSGVPSRFSGSGSGTDFTLTISSLQPEDFATYYCQQHLRVPFTFGQGTKVEIKR
B42: ABT1-141-32 (other)
VL: B41 VL with V4M, V19I, F96M
B43: ABT1-141-31 (other)
VL: B41 VL with V4M, L38Q, Y53W, F96M
B44: ABT1-141-562 (other)
VL: B41 VL with V4M, S26N, L38Q, Y53W, F96M
B45: ABT1-141-33 (other)
VL: B41 VL with V4M, Y53W, F96M
B46: ABT1-20 (other)
VH: EVQLLETGGGLVQPGGSLRLSCAASGFTFTPYRMGWVRQAPGKGLEWVSHIGIWGANTYYADSVKGRFTISRDNSKNTLYLQMNSLRAEDTAVYYCAKHPRPFDYWGQGTLVTVSS
B47: ABT1-97 (other)
VH: EVQLLESGGGLVQPGGSLRLSCAASGFTFWEYDMYWVRQAPGKGLEWVSRISGSGRYTYYADSVKGRFTISRDNSKNTLYLQMNSLRAEDTAVYYCAKRSLTRPSQFDYWGQGTLVTVSS

Substitutions are numbered along the chain they refer to. Where only a bound is given, the exact number is not on record here.

As usually defined, the IC50 is the concentration needed to halve the response being measured. Low values mean inhibition by little substance, high ones a need for much substance.

In one experiment the target is T1, human IL-1α. The experiment is described as follows: cell-based or functional assay.
Consider B1, for which the ND50 is 7000 nM.

B2: the ND50 was found to be 0.044 nM. B3 gave an ND50 of 100 nM. B4 returned an ND50 of 0.61 nM. Same read-out and setting: the figure for B5 is 0.006 nM; for B6 it is 0.059 nM; for B7 it is 0.011 nM. Still for that read-out and setting: the figure for B8 is 0.186 nM; for B9 it is 0.022 nM; for B10 it is 0.05 nM. On the same count and under the same terms, the figure for B11 is 0.05 nM.

B12 yielded an ND50 greater than 20000 nM. The same measure, in the same setting: the figure for B13 is 2.3 nM.

In the case of B14, the ND50 was found to be 0.1 nM. Molecule B15 had an ND50 of 0.004 nM. The molecule B16 registered an ND50 greater than 20000 nM. Still for that read-out and setting: the figure for B17 is 0.024 nM; for B18 it is 615 nM; for B19 it is 0.093 nM. In turn, B20 displayed an ND50 of 0.15 nM. The molecule B21 yielded an ND50 of 0.469 nM. The same measure, in the same setting: for B22 the value was 0.016 nM; for B23, 0.171 nM; for B24, 0.1 nM. On the same count and under the same terms, for B25 the value was 0.017 nM; for B26, 0.09 nM. Still for that read-out and setting: for B27 the value was 0.027 nM. Regarding B28, the ND50 was 0.035 nM. Still for that read-out and setting: for B29 the value was 0.075 nM; for B30, 0.151 nM. On the same count and under the same terms, the figure for B31 is 0.2 nM; for B32 it is 0.391 nM. Molecule B33 gave an ND50 of 0.43 nM. The same measure, in the same setting: the figure for B34 is 0.71 nM; for B35 it is 0.27 nM. For B36, the ND50 turned out to be 1 nM. Molecule B37 displayed an ND50 of 0.5 nM. Consider B38, for which the ND50 stood at 0.713 nM. B39: the ND50 stood at 5000 nM. Still for that read-out and setting: for B40 the value was 500 nM; for B41, 20 nM; for B42, 10 nM.

In the case of B43, the ND50 is 2 nM. The same measure, in the same setting: for B44 the value was greater than 10 nM; for B45, 3 nM; for B46, 1000 nM.

Molecule B47 registered an ND50 of 3000 nM.

The target of the next experiment is T1, human IL-1α. The experiment in a line: Table 62 IC50; RBA presumed.
B4 yielded an IC50 of 0.5 nM. This counts as sub-nanomolar. Still for that read-out and setting: for B33 the value was 0.5 nM; for B34, 0.5 nM. For the molecule B35, the IC50 was determined as 0.5 nM. In turn, B36 had an IC50 of 0.5 nM. B37 registered an IC50 of 0.5 nM.
